The record followed here is patent EP4663654A1 (Hangzhou Sciwind Biosciences Co., Ltd., dated 2025).

Starred links: 1 amine or outer side, 2 acyl side, 3 side chain; linkers in the order of their positions; H or OH if unused. Non-standard residues stand in square brackets, D forms with d. *: point of attachment. C20 diacid = O=C(O)CCCCCCCCCCCCCCCCCCC(=O)*; γGlu = O=C(O)[C@H](CCC(=O)[*:2])N[*:1]; Hyp = O=C(O)[C@@H]1C[C@@H](O)CN1; αMeN = C[C@](N)(CC(N)=O)C(=O)O

First the molecules themselves.
T1: human amylin receptor (AMY3) on CHO-K1/Ga15/AMY3 amylin receptor/CRE-luc cells (human, UniProt P30988 25-474; O60896 24-148)
T1 sequence (looked up) 1: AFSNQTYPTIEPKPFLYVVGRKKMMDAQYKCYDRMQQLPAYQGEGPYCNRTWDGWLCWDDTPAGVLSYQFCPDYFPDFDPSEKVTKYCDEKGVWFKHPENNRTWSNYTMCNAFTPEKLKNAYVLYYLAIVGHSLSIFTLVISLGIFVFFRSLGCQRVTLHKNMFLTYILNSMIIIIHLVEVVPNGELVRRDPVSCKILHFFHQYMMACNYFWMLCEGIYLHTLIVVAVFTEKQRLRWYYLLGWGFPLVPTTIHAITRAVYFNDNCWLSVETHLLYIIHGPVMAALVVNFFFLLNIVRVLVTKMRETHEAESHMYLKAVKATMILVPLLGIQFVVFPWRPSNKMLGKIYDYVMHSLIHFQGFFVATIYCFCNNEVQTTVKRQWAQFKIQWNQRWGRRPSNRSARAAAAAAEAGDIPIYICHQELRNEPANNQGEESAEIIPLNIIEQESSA
T1 sequence (looked up) 2: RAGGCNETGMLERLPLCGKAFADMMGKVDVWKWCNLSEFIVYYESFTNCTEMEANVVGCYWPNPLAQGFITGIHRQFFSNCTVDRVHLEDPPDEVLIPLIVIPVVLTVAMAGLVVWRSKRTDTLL

B1: polypeptide derivative M5 (peptide)
peptide: {C20 diacid-γGlu}-ASQLSTAATQRLADFLRHSSNNLKPILPPTNVGSNT[Hyp]-NH2
SMILES: CC[C@H](C)[C@H](NC(=O)[C@@H]1CCCN1C(=O)[C@H](CCCCN)NC(=O)[C@H](CC(C)C)NC(=O)[C@H](CC(N)=O)NC(=O)[C@H](CC(N)=O)NC(=O)[C@H](CO)NC(=O)[C@H](CO)NC(=O)[C@H](Cc1c[nH]cn1)NC(=O)[C@H](CCCNC(=N)N)NC(=O)[C@H](CC(C)C)NC(=O)[C@H](Cc1ccccc1)NC(=O)[C@H](CC(=O)O)NC(=O)[C@H](C)NC(=O)[C@H](CC(C)C)NC(=O)[C@H](CCCNC(=N)N)NC(=O)[C@H](CCC(N)=O)NC(=O)[C@@H](NC(=O)[C@H](C)NC(=O)[C@H](C)NC(=O)[C@@H](NC(=O)[C@H](CO)NC(=O)[C@H](CC(C)C)NC(=O)[C@H](CCC(N)=O)NC(=O)[C@H](CO)NC(=O)[C@H](C)NC(=O)CC[C@H](NC(=O)CCCCCCCCCCCCCCCCCCC(=O)O)C(=O)O)[C@@H](C)O)[C@@H](C)O)C(=O)N[C@@H](CC(C)C)C(=O)N1CCC[C@H]1C(=O)N1CCC[C@H]1C(=O)N[C@H](C(=O)N[C@@H](CC(N)=O)C(=O)N[C@H](C(=O)NCC(=O)N[C@@H](CO)C(=O)N[C@@H](CC(N)=O)C(=O)N[C@H](C(=O)N1C[C@H](O)C[C@H]1C(N)=O)[C@@H](C)O)C(C)C)[C@@H](C)O
B2: polypeptide derivative M54 (peptide)
peptide: {C20 diacid-γGlu}-ASQLSTAATQRLADFLRHSSRNLKPILPPTNVGSNT[Hyp]-NH2
SMILES: CC[C@H](C)[C@H](NC(=O)[C@@H]1CCCN1C(=O)[C@H](CCCCN)NC(=O)[C@H](CC(C)C)NC(=O)[C@H](CC(N)=O)NC(=O)[C@H](CCCNC(=N)N)NC(=O)[C@H](CO)NC(=O)[C@H](CO)NC(=O)[C@H](Cc1c[nH]cn1)NC(=O)[C@H](CCCNC(=N)N)NC(=O)[C@H](CC(C)C)NC(=O)[C@H](Cc1ccccc1)NC(=O)[C@H](CC(=O)O)NC(=O)[C@H](C)NC(=O)[C@H](CC(C)C)NC(=O)[C@H](CCCNC(=N)N)NC(=O)[C@H](CCC(N)=O)NC(=O)[C@@H](NC(=O)[C@H](C)NC(=O)[C@H](C)NC(=O)[C@@H](NC(=O)[C@H](CO)NC(=O)[C@H](CC(C)C)NC(=O)[C@H](CCC(N)=O)NC(=O)[C@H](CO)NC(=O)[C@H](C)NC(=O)CC[C@H](NC(=O)CCCCCCCCCCCCCCCCCCC(=O)O)C(=O)O)[C@@H](C)O)[C@@H](C)O)C(=O)N[C@@H](CC(C)C)C(=O)N1CCC[C@H]1C(=O)N1CCC[C@H]1C(=O)N[C@H](C(=O)N[C@@H](CC(N)=O)C(=O)N[C@H](C(=O)NCC(=O)N[C@@H](CO)C(=O)N[C@@H](CC(N)=O)C(=O)N[C@H](C(=O)N1C[C@H](O)C[C@H]1C(N)=O)[C@@H](C)O)C(C)C)[C@@H](C)O
B3: polypeptide derivative M55 (peptide)
peptide: {C20 diacid-γGlu}-ASQLSTAATQRLADFLRHSSN[αMeN]LKPILPPTNVGSNT[Hyp]-NH2
B4: polypeptide derivative M53 (peptide)
peptide: {C20 diacid-γGlu}-ASQLSTAATQRLADFLRHSSKNLKPILPPTNVGSNT[Hyp]-NH2
SMILES: CC[C@H](C)[C@H](NC(=O)[C@@H]1CCCN1C(=O)[C@H](CCCCN)NC(=O)[C@H](CC(C)C)NC(=O)[C@H](CC(N)=O)NC(=O)[C@H](CCCCN)NC(=O)[C@H](CO)NC(=O)[C@H](CO)NC(=O)[C@H](Cc1c[nH]cn1)NC(=O)[C@H](CCCNC(=N)N)NC(=O)[C@H](CC(C)C)NC(=O)[C@H](Cc1ccccc1)NC(=O)[C@H](CC(=O)O)NC(=O)[C@H](C)NC(=O)[C@H](CC(C)C)NC(=O)[C@H](CCCNC(=N)N)NC(=O)[C@H](CCC(N)=O)NC(=O)[C@@H](NC(=O)[C@H](C)NC(=O)[C@H](C)NC(=O)[C@@H](NC(=O)[C@H](CO)NC(=O)[C@H](CC(C)C)NC(=O)[C@H](CCC(N)=O)NC(=O)[C@H](CO)NC(=O)[C@H](C)NC(=O)CC[C@H](NC(=O)CCCCCCCCCCCCCCCCCCC(=O)O)C(=O)O)[C@@H](C)O)[C@@H](C)O)C(=O)N[C@@H](CC(C)C)C(=O)N1CCC[C@H]1C(=O)N1CCC[C@H]1C(=O)N[C@H](C(=O)N[C@@H](CC(N)=O)C(=O)N[C@H](C(=O)NCC(=O)N[C@@H](CO)C(=O)N[C@@H](CC(N)=O)C(=O)N[C@H](C(=O)N1C[C@H](O)C[C@H]1C(N)=O)[C@@H](C)O)C(C)C)[C@@H](C)O
B5: polypeptide derivative M1 (peptide)
peptide: {C20 diacid-γGlu}-ASELSTAALGRLADFLRHSSNNLKPILPPTNVGSNT[Hyp]-NH2
SMILES: CC[C@H](C)[C@H](NC(=O)[C@@H]1CCCN1C(=O)[C@H](CCCCN)NC(=O)[C@H](CC(C)C)NC(=O)[C@H](CC(N)=O)NC(=O)[C@H](CC(N)=O)NC(=O)[C@H](CO)NC(=O)[C@H](CO)NC(=O)[C@H](Cc1c[nH]cn1)NC(=O)[C@H](CCCNC(=N)N)NC(=O)[C@H](CC(C)C)NC(=O)[C@H](Cc1ccccc1)NC(=O)[C@H](CC(=O)O)NC(=O)[C@H](C)NC(=O)[C@H](CC(C)C)NC(=O)[C@H](CCCNC(=N)N)NC(=O)CNC(=O)[C@H](CC(C)C)NC(=O)[C@H](C)NC(=O)[C@H](C)NC(=O)[C@@H](NC(=O)[C@H](CO)NC(=O)[C@H](CC(C)C)NC(=O)[C@H](CCC(=O)O)NC(=O)[C@H](CO)NC(=O)[C@H](C)NC(=O)CC[C@H](NC(=O)CCCCCCCCCCCCCCCCCCC(=O)O)C(=O)O)[C@@H](C)O)C(=O)N[C@@H](CC(C)C)C(=O)N1CCC[C@H]1C(=O)N1CCC[C@H]1C(=O)N[C@H](C(=O)N[C@@H](CC(N)=O)C(=O)N[C@H](C(=O)NCC(=O)N[C@@H](CO)C(=O)N[C@@H](CC(N)=O)C(=O)N[C@H](C(=O)N1C[C@H](O)C[C@H]1C(N)=O)[C@@H](C)O)C(C)C)[C@@H](C)O

In this experiment the target is T1, human amylin receptor (AMY3) on …. Nature of the experiment: cell-based or functional assay.
For the molecule B1, the “EC50/nM, CRE-luciferase reporter in amylin receptor/CRE-luc CHO cells” value (“EC50/nM … in amylin receptor/CRE-luc CHO cells” below) came out at 0.031 nM and the “Relative activity (the EC50 ratio of Cagrilintide to the compound)” value is 84%.

For B2, the “EC50/nM … in amylin receptor/CRE-luc CHO cells” value amounted to 0.06 nM and the “Relative activity (the EC50 ratio of Cagrilintide to the compound)” value came to 267%.

With B3, the “EC50/nM … in amylin receptor/CRE-luc CHO cells” value worked out at 0.03 nM and the “Relative activity (the EC50 ratio of Cagrilintide to the compound)” value came out at 233%.

As to B4, the “EC50/nM … in amylin receptor/CRE-luc CHO cells” value worked out at 0.08 nM and the “Relative activity (the EC50 ratio of Cagrilintide to the compound)” value was determined as 200%.

For the molecule B5, the “EC50/nM … in amylin receptor/CRE-luc CHO cells” value is 0.053 nM and the “Relative activity (the EC50 ratio of Cagrilintide to the compound)” value turned out to be 49%.
